Experimental findings from publication PMC11195947 are described below.

The subject of the series is His6-CusR (Pseudomonas paraeruginosa IHMA87). The series can be described thus: EMSA. Conditions: apparent equilibrium constant (Keq); unphosphorylated CusR; 20 mM HEPES pH 7.9, 80 mM KCl, 20 mM MgCl2, 0.8 mM EDTA, 7.5% glycerol, 0.1 mM DTT, 25 C; 0.5 nM probe; native 5% TBE gel at 4 C.

For “PcusR probe (pcoA2-cusR intergenic 60-mer)”, the Kd is 25 nM.
